According to paper PMC9482650, “Quantitative fragmentomics allow affinity mapping of interactomes” (Nature Communications, 2022):
Values belong to the binder of their own block, whether it stands above or below them.

What was measured:
Assay in all cases: holdup assay
Set-up in all cases: key: below the threshold = too weak to quantify, mostly under pKd 3.1 to 4
[1] = target: DLG5_1, Q8TDM6
[2] = target: T1, GRIP1_7, Q9Y3R0
T1 sequence (Q9Y3R0 999-1096, limits assumed, looked up): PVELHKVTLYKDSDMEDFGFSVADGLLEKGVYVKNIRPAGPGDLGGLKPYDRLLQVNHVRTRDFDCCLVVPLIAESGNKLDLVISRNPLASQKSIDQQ

[3] = target: SNX27, Q96L92
[4] = target: NHERF4_1, Q86UT5-2
NHERF4_1, Q86UT5-2, sequence (Q86UT5 other isoform, or with tags, fused parts or gaps): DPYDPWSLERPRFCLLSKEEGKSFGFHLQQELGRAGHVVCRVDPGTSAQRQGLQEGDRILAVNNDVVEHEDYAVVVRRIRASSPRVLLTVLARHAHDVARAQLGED

[5] = target: PICK1, Q9NRD5
PICK1, Q9NRD5, sequence (Q9NRD5 17-115): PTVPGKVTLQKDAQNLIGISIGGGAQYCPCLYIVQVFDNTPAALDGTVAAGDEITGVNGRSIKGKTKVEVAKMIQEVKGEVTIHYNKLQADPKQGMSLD

[6] = target: T2, SNTG1, Q9NSN8
T2 sequence (Q9NSN8 52-150, limits assumed, looked up): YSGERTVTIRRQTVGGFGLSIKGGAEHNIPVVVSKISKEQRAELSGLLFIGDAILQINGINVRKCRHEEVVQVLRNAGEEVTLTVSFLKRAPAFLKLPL

[7] = target: NHERF4_4, Q86UT5
NHERF4_4, Q86UT5, sequence (Q86UT5 464-550): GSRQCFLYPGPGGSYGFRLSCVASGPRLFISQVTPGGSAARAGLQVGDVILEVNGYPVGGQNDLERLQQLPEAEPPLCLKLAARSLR

[8] = target: LNX1_1, Q8TBB1
LNX1_1, Q8TBB1, sequence (Q8TBB1 261-371): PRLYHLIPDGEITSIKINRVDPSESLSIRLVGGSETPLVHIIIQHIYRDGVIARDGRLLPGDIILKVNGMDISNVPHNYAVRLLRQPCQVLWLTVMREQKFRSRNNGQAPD

[9] = target: T3, MPP2, Q14168
T3 sequence (Q14168 180-250, limits assumed, looked up): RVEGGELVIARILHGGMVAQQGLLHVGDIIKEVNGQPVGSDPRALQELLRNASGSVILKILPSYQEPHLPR

[10] = target: FRMPD2_2, Q68DX3
FRMPD2_2, Q68DX3, sequence (Q68DX3 944-1038): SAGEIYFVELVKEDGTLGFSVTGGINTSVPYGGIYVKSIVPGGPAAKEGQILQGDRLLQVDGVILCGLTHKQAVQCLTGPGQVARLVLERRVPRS

[11] = target: T4, SNTA1, Q13424
T4 sequence (Q13424 82-180, limits assumed, looked up): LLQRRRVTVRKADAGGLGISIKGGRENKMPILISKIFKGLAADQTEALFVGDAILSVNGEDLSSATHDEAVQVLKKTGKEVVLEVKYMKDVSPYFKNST

[12] = target: PTPN3, P26045
PTPN3, P26045, sequence (P26045 505-587): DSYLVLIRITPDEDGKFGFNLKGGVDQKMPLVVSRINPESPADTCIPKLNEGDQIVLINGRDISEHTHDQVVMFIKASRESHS

[13] = target: T5, MPDZ_10, O75970
T5 sequence (O75970 1624-1722, limits assumed, looked up): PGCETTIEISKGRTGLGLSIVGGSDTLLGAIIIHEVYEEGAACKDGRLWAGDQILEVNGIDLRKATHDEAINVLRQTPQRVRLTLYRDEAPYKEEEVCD

[14] = target: T6, RAPGEF6, Q8TEU7
T6 sequence (Q8TEU7 525-625, limits assumed, looked up): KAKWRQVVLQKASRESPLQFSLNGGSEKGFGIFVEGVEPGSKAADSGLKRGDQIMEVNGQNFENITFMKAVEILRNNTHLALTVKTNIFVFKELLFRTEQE

[15] = target: Inadl_6, Q8NI35
Inadl_6, Q8NI35, sequence (Q8NI35 1058-1167): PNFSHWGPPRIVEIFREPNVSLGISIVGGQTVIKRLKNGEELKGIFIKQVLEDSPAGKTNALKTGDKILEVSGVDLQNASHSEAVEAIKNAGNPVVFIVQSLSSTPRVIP

[16] = target: T7, APBA1_2, Q02410
T7 sequence (Q02410 742-832, limits assumed, looked up): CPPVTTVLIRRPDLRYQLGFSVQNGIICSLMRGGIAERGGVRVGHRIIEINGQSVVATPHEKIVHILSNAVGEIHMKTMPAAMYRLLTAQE

[17] = target: MAGI1_2, Q96QZ7
MAGI1_2, Q96QZ7, sequence (Q96QZ7 456-580): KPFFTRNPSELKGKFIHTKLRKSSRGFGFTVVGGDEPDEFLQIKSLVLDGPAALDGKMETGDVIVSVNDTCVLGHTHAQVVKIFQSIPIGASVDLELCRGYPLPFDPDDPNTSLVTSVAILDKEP

[18] = target: T8, LIN7B, Q9HAP6
T8 sequence (Q9HAP6 88-185, limits assumed, looked up): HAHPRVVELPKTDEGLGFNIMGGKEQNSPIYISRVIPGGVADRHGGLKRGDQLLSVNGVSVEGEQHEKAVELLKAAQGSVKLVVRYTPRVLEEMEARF

[19] = target: DLG4_3, P78352
DLG4_3, P78352, sequence (P78352 306-403): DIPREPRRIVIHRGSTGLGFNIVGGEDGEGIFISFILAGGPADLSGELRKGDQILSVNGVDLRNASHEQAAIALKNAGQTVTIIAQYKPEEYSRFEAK

[20] = target: T9, NHERF3_3, Q5T2W1
T9 sequence (Q5T2W1 238-333, limits assumed, looked up): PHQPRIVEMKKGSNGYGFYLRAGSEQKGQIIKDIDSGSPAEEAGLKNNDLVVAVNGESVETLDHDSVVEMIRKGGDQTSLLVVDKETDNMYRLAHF

[21] = target: T10, MPP7, Q5T2T1
T10 sequence (Q5T2T1 134-230, limits assumed, looked up): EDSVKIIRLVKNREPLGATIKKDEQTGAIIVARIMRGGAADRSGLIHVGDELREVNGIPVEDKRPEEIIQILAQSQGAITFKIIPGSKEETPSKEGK

[22] = target: T11, SHANK1, Q9Y566
T11 sequence (Q9Y566 658-767, limits assumed, looked up): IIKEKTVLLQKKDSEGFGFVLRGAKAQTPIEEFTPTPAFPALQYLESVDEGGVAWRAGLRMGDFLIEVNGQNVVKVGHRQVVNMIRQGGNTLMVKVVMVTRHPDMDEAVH

[23] = target: Inadl_4, Q8NI35
Inadl_4, Q8NI35, sequence (Q8NI35 547-651): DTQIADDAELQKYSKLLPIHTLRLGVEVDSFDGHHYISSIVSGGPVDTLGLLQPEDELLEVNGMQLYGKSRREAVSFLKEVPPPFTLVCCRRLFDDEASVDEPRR

[24] = target: MAGI2_6, Q86UL8
MAGI2_6, Q86UL8, sequence (Q86UL8 1141-1229): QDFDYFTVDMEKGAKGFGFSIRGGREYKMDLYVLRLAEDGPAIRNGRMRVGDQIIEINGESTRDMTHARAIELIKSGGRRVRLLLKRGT

[25] = target: IL16_1, Q14005
IL16_1, Q14005, sequence (Q14005 210-306): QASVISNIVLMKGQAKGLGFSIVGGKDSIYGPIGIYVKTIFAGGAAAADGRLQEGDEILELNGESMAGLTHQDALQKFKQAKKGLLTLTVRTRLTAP

[26] = target: T12, PTPN13_1, Q12923
T12 sequence (Q12923 1088-1188, limits assumed, looked up): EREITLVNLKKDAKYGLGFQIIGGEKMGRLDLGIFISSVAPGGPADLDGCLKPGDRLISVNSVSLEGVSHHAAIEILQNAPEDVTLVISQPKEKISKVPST

[27] = plain residues with an end cap or a label only (N-terminal biotin on a linker: ado-ado)
[28] = plain residues with an end cap or a label only (N-terminal biotin on a linker: ahx)

DLG5_1, Q8TDM6, sequence (Q8TDM6 617-713): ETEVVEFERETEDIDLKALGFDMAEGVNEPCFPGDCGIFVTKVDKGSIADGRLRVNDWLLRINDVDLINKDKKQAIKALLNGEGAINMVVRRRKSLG

- pKd [1, 27]: below the threshold
- pKd [2, 27]: below the threshold
- pKd [3, 27]: 3.61
- pKd [4, 27]: below the threshold
- pKd [5, 27]: 4.17
- pKd [6, 27]: below the threshold
- pKd [7, 27]: below the threshold
- pKd [8, 27]: below the threshold
- pKd [9, 27]: 3.69
- pKd [10, 27]: below the threshold
- pKd [11, 27]: below the threshold
- pKd [12, 27]: below the threshold
- pKd [13, 27]: below the threshold
- pKd [14, 27]: below the threshold
- pKd [15, 27]: below the threshold
- pKd [16, 27]: below the threshold
- pKd [17, 27]: below the threshold
- pKd [18, 27]: below the threshold
- pKd [19, 27]: below the threshold
- pKd [20, 27]: below the threshold
- pKd [21, 27]: below the threshold
- pKd [22, 27]: below the threshold
- pKd [23, 27]: below the threshold
- pKd [24, 27]: below the threshold
- pKd [25, 27]: below the threshold
- pKd [26, 27]: below the threshold
Binder: PDSYHRRDFW [U2AF2, P26368]

- pKd [1, 28]: below the threshold
- pKd [2, 28]: below the threshold
- pKd [3, 28]: 4.36
- pKd [4, 28]: below the threshold
- pKd [5, 28]: below the threshold
- pKd [6, 28]: 3.94
- pKd [7, 28]: below the threshold
- pKd [8, 28]: 3.72
- pKd [9, 28]: below the threshold
- pKd [10, 28]: 3.99
- pKd [11, 28]: below the threshold
- pKd [12, 28]: 4.2
- pKd [13, 28]: 3.48
- pKd [14, 28]: below the threshold
- pKd [15, 28]: below the threshold
- pKd [16, 28]: 3.99
- pKd [17, 28]: below the threshold
- pKd [18, 28]: below the threshold
- pKd [19, 28]: below the threshold
- pKd [20, 28]: below the threshold
- pKd [21, 28]: below the threshold
- pKd [22, 28]: 3.76
- pKd [23, 28]: below the threshold
- pKd [24, 28]: 4.55
- pKd [25, 28]: 3.47
- pKd [26, 28]: below the threshold
Binder: KDECVIATEV [DLL1, O00548]
